Laboratory results published in the supplement of paper PMC10724198.
± gives the standard deviation of the averaged measurements.

What was measured:
Saccharomyces cerevisiae [1] = experiment: protein stability index of tFT-peptide fusion (C-terminal peptide) (PSI (0-1 scale)); higher = more stable (slower turnover)
Method: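 MPS profiling in S. cerevisiae of the tFT-X12 degron library: putative degron peptides plus stable controls, 12 aa, fused to the C-terminus of a sfGFP-mCherry timer. Cells are FACS-sorted into 8 mCherry/sfGFP bins and deep-sequenced. PSI runs from 0 (unstable) to 1 (stable). Backgrounds are wild type, das1Δ and doa10Δ at 30 °C, and wild type, das1Δ, cdc34-1 and cdc53-1 at 37 °C; 2-3 technical replicates each.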

Saccharomyces cerevisiae [2] = experiment: as above; settings: genetic background: wild type; temperature: 30 C
[3] = genetic background: cdc34-1, temperature: 37 C
[4] = genetic background: cdc53-1, temperature: 37 C
[5] = genetic background: das1 deletion, temperature: 30 C
[6] = genetic background: das1 deletion, temperature: 37 C
[7] = genetic background: doa10 deletion, temperature: 30 C
[8] = genetic background: wild type, temperature: 30 C
[9] = genetic background: wild type, temperature: 37 C
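Also: PSI is a weighted mean of sequencing reads over stability bins, variants kept only with over 10 reads, mCherry proximal and sfGFP distal, peptide attached via GGGS linker.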

Row | Sequence | protein stability index (Saccharomyces cerevisiae [1]; [3]) | protein stability index (Saccharomyces cerevisiae [1]; [4]) | protein stability index (Saccharomyces cerevisiae [1]; [5]) | protein stability index (Saccharomyces cerevisiae [1]; [6]) | protein stability index (Saccharomyces cerevisiae [1]; [7]) | protein stability index (Saccharomyces cerevisiae [1]; [8]) | protein stability index (Saccharomyces cerevisiae [1]; [9]) | protein stability index (Saccharomyces cerevisiae [2])
1 | IILGVRQIEVNS | 0.488 ± 0.012 | 0.517 ± 0.031 | 0.358 ± 0.029 | 0.526 ± 0.021 | 0.323 ± 0.0071 | 0.373 ± 0.031 | 0.52 ± 0.0076 | 0.4447 ± 0.0033
2 | IKSIKQNKIKTI | 0.619 ± 0.051 | 0.648 ± 0.021 | 0.653 ± 0.029 | 0.699 ± 0.026 | 0.186 ± 0.013 | 0.171 ± 0.079 | 0.246 ± 0.032 | 0.292 ± 0.008
3 | IKTKGRYKKQRT | 0.632 ± 0.051 | 0.709 ± 0.01 | 0.679 ± 0.049 | 0.743 ± 0.037 | 0.34 ± 0.018 | 0.376 ± 0.058 | 0.572 ± 0.045 | 0.408 ± 0.014
4 | ILFIVSSCGCVG | 0.543 ± 0.031 | 0.557 ± 0.039 | 0.445 ± 0.037 | 0.5904 ± 0.0013 | 0.443 ± 0.024 | 0.446 ± 0.015 | 0.5724 ± 0.0043 | 0.471 ± 0.0064
5 | ILISVNRVVLYC | 0.364 ± 0.016 | 0.4123 ± 0.0011 | 0.289 ± 0.027 | 0.461 ± 0.011 | 0.115 ± 0.014 | 0.14 ± 0.017 | 0.1901 ± 0.00075 | 0.2171 ± 0.00013
6 | ILRKTAFRLRVL | 0.623 ± 0.047 | 0.635 ± 0.0073 | 0.525 ± 0.011 | 0.658 ± 0.023 | 0.228 ± 0.016 | 0.264 ± 0.024 | 0.376 ± 0.01 | 0.397 ± 0.025
7 | IMWCSSVSEVQW | 0.538 ± 0.075 | 0.582 ± 0.0064 | 0.472 ± 0.027 | 0.518 ± 0.0069 | 0.492 ± 0.03 | 0.494 ± 0.047 | 0.5016 ± 0.0029 | 0.4741 ± 0.0032
8 | IPFRRCFWFFWV | 0.537 ± 0.029 | 0.7 ± 0.011 | 0.593 ± 0.035 | 0.6909 ± 0.0044 | 0.143 ± 0.014 | 0.167 ± 0.024 | 0.204 ± 0.027 | 0.2345 ± 0.0012
9 | ISSYKFLRIVLV | 0.384 ± 0.01 | 0.435 ± 0.0053 | 0.335 ± 0.026 | 0.509 ± 0.022 | 0.131 ± 0.031 | 0.149 ± 0.032 | 0.191 ± 0.0035 | 0.189 ± 0.0046
10 | ISVSFSVIFFLL | 0.266 ± 0.0073 | 0.398 ± 0.019 | 0.372 ± 0.019 | 0.4778 ± 0.0024 | 0.0751 ± 0.0046 | 0.0951 ± 0.01 | 0.137 ± 0.002 | 0.154 ± 0.044
11 | IWIRLGSENTVI | 0.7085 ± 0.0014 | 0.7221 ± 0.007 | 0.646 ± 0.036 | 0.7489 ± 0.00087 | 0.672 ± 0.026 | 0.653 ± 0.032 | 0.78 ± 0.015 | 0.443 ± 0.22
12 | IWWFKELRVCRV | 0.506 ± 0.014 | 0.559 ± 0.013 | 0.435 ± 0.022 | 0.5589 ± 0.0019 | 0.4128 ± 0.0013 | 0.424 ± 0.024 | 0.539 ± 0.017 | 0.49 ± 0.013
13 | IYFFFFALHFPN | 0.498 ± 0.083 | 0.521 ± 0.013 | 0.366 ± 0.054 | 0.535 ± 0.029 | 0.388 ± 0.019 | 0.407 ± 0.025 | 0.544 ± 0.047 | 0.524 ± 0.067
14 | KAIILGNIKINF | 0.729 ± 0.018 | 0.744 ± 0.016 | 0.6368 ± 0.0023 | 0.714 ± 0.011 | 0.638 ± 0.026 | 0.624 ± 0.018 | 0.741 ± 0.045 | 0.539 ± 0.16
15 | KALFPGLLLCAF | 0.168 ± 0.0027 | 0.188 ± 0.0038 | 0.239 ± 0.02 | 0.292 ± 0.012 | 0.204 ± 0.0091 | 0.232 ± 0.022 | 0.268 ± 0.017 | 0.307 ± 0.014
16 | KLLDHFVKIRVY | 0.164 ± 0.021 | 0.2 ± 0.0077 | 0.225 ± 0.044 | 0.416 ± 0.0072 | 0.0632 ± 0.0066 | 0.0674 ± 0.024 | 0.0534 ± 0.03 | 0.0988 ± 0.0069
17 | KLRELQVRQQLS | 0.648 ± 0.1 | 0.677 ± 0.015 | 0.635 ± 0.03 | 0.7272 ± 0.0049 | 0.189 ± 0.021 | 0.199 ± 0.025 | 0.413 ± 0.017 | 0.382 ± 0.02
18 | LAEHIFLVLDHG | 0.451 ± 0.026 | 0.485 ± 0.013 | 0.428 ± 0.0085 | 0.499 ± 0.0062 | 0.463 ± 0.024 | 0.432 ± 0.0071 | 0.478 ± 0.0089 | 0.453 ± 0.013
19 | LAISTIQMFKRI | 0.677 ± 0.049 | 0.718 ± 0.04 | 0.624 ± 0.017 | 0.718 ± 0.018 | 0.295 ± 0.021 | 0.327 ± 0.022 | 0.568 ± 0.038 | 0.38 ± 0.019
20 | LAKPTVRKIICV | 0.41 ± 0.0086 | 0.387 ± 0.025 | 0.301 ± 0.049 | 0.4672 ± 0.0038 | 0.263 ± 0.017 | 0.296 ± 0.04 | 0.421 ± 0.0089 | 0.419 ± 0.007

Row | Sequence | protein stability index (Saccharomyces cerevisiae [1]; [3]) | protein stability index (Saccharomyces cerevisiae [1]; [4]) | protein stability index (Saccharomyces cerevisiae [1]; [5]) | protein stability index (Saccharomyces cerevisiae [1]; [6]) | protein stability index (Saccharomyces cerevisiae [1]; [7]) | protein stability index (Saccharomyces cerevisiae [1]; [8]) | protein stability index (Saccharomyces cerevisiae [1]; [9]) | protein stability index (Saccharomyces cerevisiae [2])
21 | LAPSRNRSVWLV | 0.591 ± 0.015 | 0.7308 ± 0.002 | 0.649 ± 0.016 | 0.74 ± 0.0098 | 0.104 ± 0.012 | 0.119 ± 0.018 | 0.199 ± 0.0086 | 0.247 ± 0.036
22 | LASFCSVCIFIS | 0.224 ± 0.0054 | 0.31 ± 0.014 | 0.238 ± 0.017 | 0.429 ± 0.0071 | 0.099 ± 0.0025 | 0.127 ± 0.033 | 0.17 ± 0.012 | 0.163 ± 0.029
23 | LASWVVFIWFLW | 0.253 ± 0.026 | 0.348 ± 0.012 | 0.278 ± 0.018 | 0.41 ± 0.01 | 0.281 ± 0.031 | 0.25 ± 0.043 | 0.423 ± 0.041 | 0.329 ± 0.077
24 | LCFLVALASMLF | 0.5426 ± 0.0019 | 0.579 ± 0.038 | 0.472 ± 0.036 | 0.549 ± 0.018 | 0.4385 ± 0.0032 | 0.462 ± 0.026 | 0.5246 ± 0.00074 | 0.504 ± 0.01
25 | LCFVCLWGYLGV | 0.388 ± 0.023 | 0.471 ± 0.011 | 0.322 ± 0.034 | 0.528 ± 0.023 | 0.307 ± 0.0054 | 0.323 ± 0.022 | 0.4791 ± 0.0038 | 0.479 ± 0.044
26 | LCFVFVLGFFAF | 0.379 ± 0.058 | 0.4836 ± 0.0019 | 0.349 ± 0.031 | 0.488 ± 0.0085 | 0.319 ± 0.011 | 0.334 ± 0.012 | 0.501 ± 0.022 | 0.421 ± 0.017
27 | LCTCFLVLLLWC | 0.387 ± 0.032 | 0.404 ± 0.02 | 0.339 ± 0.024 | 0.46 ± 0.01 | 0.34 ± 0.01 | 0.315 ± 0.018 | 0.4407 ± 0.0027 | 0.337 ± 0.1
28 | LCVFRFFLFFFL | 0.35 ± 0.012 | 0.371 ± 0.034 | 0.327 ± 0.032 | 0.461 ± 0.012 | 0.364 ± 0.019 | 0.291 ± 0.027 | 0.427 ± 0.016 | 0.402 ± 0.054
29 | LDFPPLRLILRL | 0.601 ± 0.019 | 0.609 ± 0.0072 | 0.584 ± 0.035 | 0.6464 ± 0.0014 | 0.658 ± 0.017 | 0.538 ± 0.049 | 0.6071 ± 0.0026 | 0.538 ± 0.064
30 | LEPFTGYTVIVM | 0.165 ± 0.045 | 0.185 ± 0.015 | 0.232 ± 0.045 | 0.331 ± 0.021 | 0.189 ± 0.0054 | 0.236 ± 0.034 | 0.261 ± 0.032 | 0.334 ± 0.048
31 | LFDVLFVFSFIF | 0.4681 ± 0.0013 | 0.524 ± 0.006 | 0.413 ± 0.017 | 0.535 ± 0.015 | 0.432 ± 0.034 | 0.42 ± 0.024 | 0.503 ± 0.019 | 0.449 ± 0.045
32 | LFFASFLLIGPF | 0.4091 ± 0.0033 | 0.4803 ± 0.003 | 0.375 ± 0.039 | 0.499 ± 0.014 | 0.354 ± 0.03 | 0.321 ± 0.037 | 0.483 ± 0.041 | 0.393 ± 0.0098
33 | LFFFFLPHLILL | 0.3403 ± 0.00055 | 0.321 ± 0.041 | 0.321 ± 0.046 | 0.4803 ± 0.004 | 0.404 ± 0.058 | 0.26 ± 0.028 | 0.395 ± 0.011 | 0.377 ± 0.035
34 | LFHPPSFSLRLF | 0.681 ± 0.038 | 0.738 ± 0.025 | 0.678 ± 0.019 | 0.748 ± 0.023 | 0.301 ± 0.038 | 0.348 ± 0.025 | 0.5619 ± 0.0044 | 0.528 ± 0.25
35 | LFHVWSLRFFWL | 0.576 ± 0.039 | 0.669 ± 0.017 | 0.557 ± 0.018 | 0.6837 ± 0.0039 | 0.2583 ± 0.00064 | 0.282 ± 0.027 | 0.434 ± 0.015 | 0.391 ± 0.023
36 | LFLFVGCSVRRL | 0.528 ± 0.023 | 0.58092 ± 0.00029 | 0.392 ± 0.034 | 0.599 ± 0.021 | 0.374 ± 0.0049 | 0.391 ± 0.014 | 0.5744 ± 0.0024 | 0.4951 ± 0.0047
37 | LFLLYVLVSLFV | 0.288 ± 0.019 | 0.347 ± 0.064 | 0.267 ± 0.048 | 0.369 ± 0.019 | 0.222 ± 0.0045 | 0.251 ± 0.025 | 0.39 ± 0.052 | 0.281 ± 0.045
38 | LFLVVVVRAGGF | 0.144 ± 0.042 | 0.288 ± 0.058 | 0.214 ± 0.03 | 0.4065 ± 0.0012 | 0.187 ± 0.0076 | 0.208 ± 0.022 | 0.382 ± 0.045 | 0.293 ± 0.0094
39 | LFPVASLCLART | 0.643 ± 0.028 | 0.648 ± 0.048 | 0.527 ± 0.036 | 0.663 ± 0.0042 | 0.513 ± 0.022 | 0.524 ± 0.023 | 0.659 ± 0.057 | 0.529 ± 0.065
